Test: yeast display, Sf9 membrane polyspecificity reagent, FACS + sequencing; frameworks hold sequencing errors
Method in brief: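 Using colony PCR, genes from sorted yeast display clones were amplified, then sequenced on MiSeq at 2 × 250 and filtered by CDR length. The clones had been stained with 10% biotinylated, detergent-solubilized Sf9 membrane reagent for 1 hour at 4 °C and sorted by FACS into low and high (top ~1%) gates on anti-HA and streptavidin fluorescence. Polyreactivity labels come from the gate of origin.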

Row | Sequence | polyreactivity (PSR sort gate)
1 | KVQLVESGGGLVQAGGSLRLSCAASGSIFTHNAMGWYRQAPGKERELVAAISSGGSTNYADSVKGRFTISRDNAKNTVYLQMNSLKPEDTAVYYCAKSIDGWYWRRRRYDYWGQGTQVTVSS | low polyreactivity
2 | QVQLVESGGGLVQAGGSLRLSCAASGFYYYAMGWYRQAPGKERELVAVITYSGGSTYYADSVKGRFTISRDNAKNTVYLQMNSVKPEDTAVYYCAADYRPGYDYWGQGTQVTVSS | low polyreactivity
3 | QVQLVESGGGLVQAGGSLRLSCAASGSIFGLYGMGWYRQAPGKERELVAAISSGGTTNYADSVKGRFTISRDNAKNTVYLQMNSLKPEDTAVYYCAARYSRGAYIYYGWYGYGYWGQGTQVTVSS | low polyreactivity
4 | QVQLVESGGGLVQAGGSLRLSCAASGSIFRNNAMGWYRQAPGKERELVASITRRGGSTYYADSVKGRFTISRDNAKNTVYLQMNSLKPEDTAVYYCAATTQHRYKLNYWGQGTHVTVSS | high polyreactivity
5 | QVQLVESGGGLVQAGASLRLSCAASGFIFRHYAMGWYRQAPGKARELVAVINWSGSSTYYADSVKGRFTISRDNAKNTVYLQMNSLKPEDTAVYYCAVRSLRVDKYGYWGQGTQVTVSS | high polyreactivity
6 | QVQLVESGGGLVQAGGSLRLSCAASGFTFAPYDMGWYRQAPGKERELVATISWSGARTYYADSVKGRFTISRDNAKNTVYLQMNSLKAEDTAVYYCAAAYSSSKSSGNYYYWGQGTQVTVSS | high polyreactivity
7 | QVQLVESGGGLVQAGGSLRLSCAASGSISDVYAMGWYRQAPGKERELVAAITSGASTYYADSVKGRFTISRDNAKNTVYLQMNSLKPEDTAVYYCAADSDSQWGMDYWGQGTQVTVSS | low polyreactivity
8 | QVQLVESGGGLVQAGGSLRLSCAASGLTFSFYAMGWYIPAPGKDTERVAAISSGGGITYYADSVKGRFTISRDNAKNTVYLQMNSLKPEDTALYYCNTDDYYQYWVPSEYYYCGQGTQVTVSS | low polyreactivity
9 | QVQLVESGGGLVQAGGSLRLSCAASGSTFHDKAMGWYRQAPGKERELVAAITKTAGSTYYADSVKGRFTISRDNAKNTVYLQMNSMKPEDTAVYYCNAKTYHSRRKVLRFDYWGQGTQVTVSS | low polyreactivity
10 | QVQLGESGGGLVQAGGSVRLSCAASGRTFDTNAMGWYRQAPGKERELVAAISWSAGRTYYADSVKGRFTISRDNAKNTVYLQMNSLKPEDTAVYYCAARPPFIAYSWQKHGYYWGQGTQVTVSS | low polyreactivity
11 | QVQLVESGGGLVQAGGSLRLSCAASGRIFVVYVMGWYRQAPGKERELVAAISYSTGSTYYADSVKGRFTISRDNAKNTVYLQMKSLKPEDTAVYYCAVAAARKSFVSRYYYWGQGTQVTVSS | low polyreactivity
12 | QVQLVESGGGLVQAGGSLRLSCAASGRIFPYYAMGWYRQAPGKEREFVAAITKRGGSTSYADSVKGRFTISRDNAKNTVYLQMNSLKPEDTAVYYCAARRGSGIVTYYGGDYWGQGTQVTVSS | low polyreactivity
13 | QVQIVESGGGLVQAGGSLRISCAASGRTLRYNTMGWSRKAPGKERELVAAISIRGGSTYYADSVKGRFTISRDNAKYTVYLQMISLKAEDTAVYYCNVVFQKAARIVEVDYWGQGTQVSVSS | high polyreactivity
14 | QVQLVESGGGLVQAGGSLRLSCAASGRIFYPYAMGWYRQAPGKERELVAAISLSGGSTLYADSVKGRFTISRDNAKNTVYLQMNSLKPEDTAVYYCAADQRTRYQTRQYYYWGQGTQVTVSS | low polyreactivity
15 | QVQLVESGGGLVQAGGSLRLSCAASGFIFGGYAMGWYRHAPRKERELVAAISRSGGSTYYADSVKGRFTISRDNAKNTVYLQMNSLKPEDTAVYYCNAVPRRQGFNYWGQGTQVSVSS | high polyreactivity
16 | QVQLVESGGGLVQAGGSLRLSCAASGFTLYRYAMGWYIQAPGKERELVAAISKRGASSYYADSVKGRFTISRDNAKNTVYLQMNSLKPEDTAVYYCAATISRAYKPVKGHYYLGMDYWGQGTQVTVSS | high polyreactivity
17 | QVQLVESGGGLVQAGGSLRLSCAASGRIFVRYVMGWYRLAPGKERELVAAINWNGGSTYYADSVKGRFTISRDNAKNTVYLQMNSLKPEDTAVYYGAARGQFYNTRGGYWGQGTQVTVSS | high polyreactivity
18 | QVQLVESGGGLVQAGGSLRLSCAASGSIFRPYTMGWYRQAPGKEREFVAAITWSDGSTYYADSVKGRFTISRDNAKNTVYLQINSLKPLDTAVYDCAADLHDGYYYSFWYGYDYWGQGTQVTVSS | low polyreactivity
19 | QVQLVESGGGLVQAGGSLRLSCAASGRIFSIYAMGWYRQAPGKERELVAAITRGGRTNYADSVKGRFTISRDNAKNTVYLQMNSLKPEDTAVYYCAARRIDGVVKPYDYWGQGTQVTVSS | low polyreactivity
20 | QVQLVESGGGLVQAGGSLRLSCAASGSIFYDNAMGWYRQAPGKERELVAAIDDSDRTYYADSEKGRFTISRDNAKNTVYLQMNSLKPEDTAVYYCARDRWKWHYGYDYWGQGTQVTVSS | low polyreactivity
21 | QVQLVESGGGLVQAGGSLRLSCAASGGTFRPYAIGWYRQAPGKERELVATIRSSGGRTYYADSVKGRFTISRDNAKNTVYLQMNSLKPEDTAVYYCAKRAQTYYGYVYWGQGTQVTVSS | high polyreactivity
22 | QVQLVESGGGLVQAGGSLRLSCAASGRTFVRYTMGWYRQAPGKERELVAAISISGGRTYYADSVQGRFTISRDNAKNTVYLQMNSLKPEDTAVYYCAKDYLGGQLASTGGYDYWGLGTQVTVSS | low polyreactivity

Row | Sequence | polyreactivity (PSR sort gate)
23 | QVQLVESGGGLVQAGGSLRLSCAASGRIFWYYAMGWYRQAPGKEREFVAAIDWSGGRTYYADSVKGRFTISRDNAKNTVYLQMNSLKPEDTAVYYCAARDRAGRGKSYKPYYYWGQGTQVTVSS | high polyreactivity
24 | QVQLVESGGGLVQAGGSLRLSCAPSGFTFGSNAMGWYRQAPGKERELVAAITWRGGSTYYADSVKGRFTISRDNAKNTVYLQMNSLKPEDTAVYYCAAVRSASSWQYIWLKYYYWGQGTQVTVSS | high polyreactivity
25 | QVQLVESGGGLVQAGGSLRLSCAASGGTFFVYAMGWSRPAPGKERELVAAISGSGGRTYYADSVKGRFTISRDNAKNTVYLQMNSLTPEDTAVYYCNATYLTRSTRLSDFDYWGQGTQVTVSS | high polyreactivity
26 | QVQLVESGGGLVQAGGSLRLSCAASGRILARYAMGWYRQAPGKERELVAAITSRGGSTSYADSVKGRFTISRDNAKNTVYLQMNSLKPEDTAVYYCAKGERSANGGLFAGRHGYWGQGTQVTVSS | low polyreactivity
27 | QVQLVESGGGIVQAGGSLRLSCAASGYIFKYYAMGWYRQAPGKERELVAAITGGVSTNYADSVKGRFTISRDNAKNTVYLQMNSLKPEDTAVYYCAAAITPSDTGSEYDYWGQGTQVTVSS | low polyreactivity
28 | QVQLGDSGGGLGQAGGSLRLSCAASGSTFASDTMGWYRQEPGKERYLVATISRPGGTTNYADSVKGRFTISRDNAKNTVYLQMNSLKPEDTAVFDCARRYPRYDFAYGYDYWGQGTQGTVSS | high polyreactivity
29 | QVQLVESGGGLVQAGGSLRLSCAASVIIFNRYAMGRYRQAPGKERELVAAISGTGASTYYADSVKGRFTISRDNAKNTVYLQMNSLKPEDTAVYYCNARKRYKSGYWGQGTQVTVSS | high polyreactivity
30 | QVQLQESGGGLVQAGGSLRLSCAASGTISPLPAMGWYRQAPGKEREFVAGIDTGAITNYADSVKGRFTISRDNGKNTVYLQMNSLNPEDTAVYYCAVFRGAYDYYEGYYTYWGQGTQVTVSS | low polyreactivity
31 | QVQLVESGGGLVQAGGSLRLSCAASGSTFTYYAMGWYRQAPGKERELVAAITRRGGSTYYADSVKGRFTISRDNAKNTVYLQMNSLIPEDTAVYYCAKSTQIRAYIWDPYRISTYGYWGQGTQVTVSS | high polyreactivity
32 | QVQLVESGGGLVQAGGSLRLSCAASGRTFLRYAMGWYRQAPGKERELVAAISSRGGSTYYADSVKGRFTISRDNAKNTVYLQMNSLKPEDTAVYYCAARFLHYYPTRGYTYDYWGQGTQVTVSS | high polyreactivity
33 | QVQLVESGGGLVQAGGSLRLSCAASGFIFVYNAMGWYRQAPGKERELVAVISSGGSTYYADSVKGRFTISRDNAKNTVYLQMNSLKPEDTAVYYCNKRRYDIKDEYDYWGQGTQVTVSS | low polyreactivity
34 | QVQLVESGGGLVQAGGSLRLSCAASGRTFDIYAMGWYRQAHGKERELVAAISSGGSTYYADSVKGRFTISRDNAKNTVYLQMNSLKPEDTAVYYCAVRWYDQVSRRGIGYYWGQGTQVTVSS | low polyreactivity
35 | QVQLVESGGGLVQAGGSLRLSCAASGSTFPYYALGWSRQAPGKEREFVATISSSGGSTYYADSVKGRFTISRDNAKNTVYLQMNSLKPEDTAVYYCAARYQTSGFRYRYGYWGQGTQVTVSS | high polyreactivity
36 | QVQLVESGGGLVQAGGSLRLSCAASGRTFTRYAMGWYRQAPGKERELVAAISGGGGSTYYADSVKGRFTISRDNAKNTVYLQMNSLKPEDTAVYYCAAGPWFYYWGQGTQVTVSS | low polyreactivity
37 | QVQLVESGGGLVQAGGSLRLSCAASGRTFYANTMGWYRQAPGKERELVAAITVRGGTTFYADSVKGRFTISRDNAKNTVYLQMNSLKPEDTAVYYCAAYGYRYSHEYYYWGQGTQVTVSS | high polyreactivity
38 | QVQLVESGGGLVQAGGSLRLSCAASGSTFGRYAMGWYRQAPGKERELVARISWGGGSTYYADSVKGRFTISRDNAKNTVYLQMNSLKPEDTAVYYCATRVYRSAVSYDYWGQGTQVTVSS | high polyreactivity
39 | QVQLVESGGGLVQAGGSLRLSCAASGSIFGRNAMGWYRQAPGKEREFVAAISQRGGRTYYADSVKGRFTISRDNAKNTVYLQMNSLKPEDTAVYYCAATYTRVPNRFYYWGQGTQVTVSS | high polyreactivity
40 | QVQLVESGGGLVQAGGSLRLSCAASGRIFWANAMGWYRQAPGKERELVAAISYSGVSTYYADSVKGRFTISRDNAKNTVYLQMNSLKPADTAVYYCAADRYRKYYYWGQGTQVTVSS | high polyreactivity
41 | QVQLVESGGGLVQAGGSLRLSCAASGRIFALNALGWYRQAPGKERELVATFRWSGGSTYYADSVKGRFTISRDYAKNTVYLQMNSLKPEDTAVYYCAAYSGNRRTYDYWGHGTQVTVSS | high polyreactivity
42 | QVQIVESGGGLVQAGGSLRLSCAASGSIFPHYAMGWYRQAPGKERELVAAISRGGSTNYADSVKGRFTISRDNAKNTVYLQMNSLKPEDTAVYYCNALRYYSRFLYAVAYRYDYWGQGTQVTVSS | high polyreactivity
43 | QVQLVESGGGLVQAGGSLRLSCAASGRTFWAYALGWYRQGPGKERELVAAITTSGGSTNYADSVKGRFTISRDNAKNTVYVQLHSLKPEDTAVYYCNADPTYPVVNGVGYWGQGTQVTVSS | low polyreactivity

From the nanobody polyreactivity screen of Harvey et al. (2022)
